Test results taken from article PMC6650801.

Molecular target: EGFR–eGFP fusion protein (epidermal growth factor receptor fused to the F64L, S65T mutant of GFP) (UniProt P00533)

half recovery time T1/2 of EGFR–eGFP fluorescence in stripe FRAP on F1-10 cells, before and 2.5 min after 50 nM EGF: 6.4 s
Substance: murine EGF (epidermal growth factor) (from UniProt P01132 977-1029) (ligand)
